Reference: patent US20180037622A1
Read-outs that look alike come from different tables or passages of the source.

T1: Growth and Differentiation Factor-11 (GDF11) (UniProt O95390)
T1 sequence (looked up): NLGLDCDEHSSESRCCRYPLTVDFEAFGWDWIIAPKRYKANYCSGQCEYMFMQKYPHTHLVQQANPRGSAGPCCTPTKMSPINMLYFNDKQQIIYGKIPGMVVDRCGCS

T2: Activin A (UniProt P08476)
T2 sequence (looked up): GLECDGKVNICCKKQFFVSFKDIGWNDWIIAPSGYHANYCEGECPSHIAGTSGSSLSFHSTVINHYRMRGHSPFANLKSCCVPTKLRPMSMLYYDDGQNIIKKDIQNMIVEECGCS


Columns and labels:
Test in all cases: cell-based or functional assay
[1] = biological target: T1, Growth and Differentiation Factor-11 (GDF11)
Activin A [2] = biological target: T2, Activin A
[3] = biological target: T1, Growth and Differentiation Factor-11 (GDF11); remark: listed apart in the source
Activin A [4] = biological target: T2, Activin A; remark: listed apart in the source

Row | Binder | IC50 [1] [µg/mL] | IC50 (Activin A [2]) [µg/mL] | IC50 [3] [µg/mL] | IC50 (Activin A [4]) [µg/mL] | GDF11 Inhibition Activity (KI) [3] [nM] | Activin Inhibition Activity (KI) (Activin A [4]) [nM]
1 | ActRIIB(21-131)-hFc (Fc fusion, not shown: a dimerising Fc or GST) RGEAETRECIYYNANWELERTNQSGLERCEGEQDKRLHCYASWRNSSGTIELVKKGCWLDDFNCYDRQECVATEENPQVYFCCCEGNFCNERFTHLPEAGGPEVTYEPPPT | 0.121 | 0.325 | – | – | – | –
2 | ActRIIB(22-131)-hFc (Fc fusion, not shown: a dimerising Fc or GST) GEAETRECIYYNANWELERTNQSGLERCEGEQDKRLHCYASWRNSSGTIELVKKGCWLDDFNCYDRQECVATEENPQVYFCCCEGNFCNERFTHLPEAGGPEVTYEPPPT | 0.071 | 0.1 | – | – | – | –
3 | ActRIIB(20-131)-hFc (Fc fusion, not shown: a dimerising Fc or GST) GRGEAETRECIYYNANWELERTNQSGLERCEGEQDKRLHCYASWRNSSGTIELVKKGCWLDDFNCYDRQECVATEENPQVYFCCCEGNFCNERFTHLPEAGGPEVTYEPPPT | 0.183 | 0.201 | 0.12 | 0.044 | – | –
4 | ActRIIB(20-132)-hFc (Fc fusion, not shown: a dimerising Fc or GST) GRGEAETRECIYYNANWELERTNQSGLERCEGEQDKRLHCYASWRNSSGTIELVKKGCWLDDFNCYDRQECVATEENPQVYFCCCEGNFCNERFTHLPEAGGPEVTYEPPPTA | – | – | 0.087 | 0.032 | – | –
5 | ActRIIB(20-128)-hFc (Fc fusion, not shown: a dimerising Fc or GST) GRGEAETRECIYYNANWELERTNQSGLERCEGEQDKRLHCYASWRNSSGTIELVKKGCWLDDFNCYDRQECVATEENPQVYFCCCEGNFCNERFTHLPEAGGPEVTYEP | – | – | 0.13 | 0.158 | – | –

Results, then the binder that gave them:

Row | IC50 [1] [µg/mL] | IC50 (Activin A [2]) [µg/mL] | IC50 [3] [µg/mL] | IC50 (Activin A [4]) [µg/mL] | GDF11 Inhibition Activity (KI) [3] [nM] | Activin Inhibition Activity (KI) (Activin A [4]) [nM] | Binder
6 | 0.06 | 0.043 | – | – | – | – | ActRIIB(23-131)-hFc (Fc fusion, not shown: a dimerising Fc or GST) EAETRECIYYNANWELERTNQSGLERCEGEQDKRLHCYASWRNSSGTIELVKKGCWLDDFNCYDRQECVATEENPQVYFCCCEGNFCNERFTHLPEAGGPEVTYEPPPT
7 | 0.069 | 0.105 | – | – | – | – | ActRIIB(24-131)-hFc (Fc fusion, not shown: a dimerising Fc or GST) AETRECIYYNANWELERTNQSGLERCEGEQDKRLHCYASWRNSSGTIELVKKGCWLDDFNCYDRQECVATEENPQVYFCCCEGNFCNERFTHLPEAGGPEVTYEPPPT
8 | – | – | – | – | 1000 | 1000 | ActRIIB-Fc A64 20-134 (Fc fusion, not shown: a dimerising Fc or GST) GRGEAETRECIYYNANWELERTNQSGLERCEGEQDKRLHCYASWANSSGTIELVKKGCWLDDFNCYDRQECVATEENPQVYFCCCEGNFCNERFTHLPEAGGPEVTYEPPPTAPT
